B1: natural human lactoferrin (ligand)
chain: GRRRRSVQWCAVSQPEATKCFQWQRNMRKVRGPPVSCIKRDSPIQCIQAIAENRADAVTLDGGFIYEAGLAPYKLRPVAAEVYGTERQPRTHYYAVAVVKKGGSFQLNELQGLKSCHTGLRRTAGWNVPIGTLRPFLNWTGPPEPIEAAVARFFSASCVPGADKGQFPNLCRLCAGTGENKCAFSSQEPYFSYSGAFKCLRDGAGDVAFIRESTVFEDLSDEAERDEYELLCPDNTRKPVDKFKDCHLARVPSHAVVARSVNGKEDAIWNLLRQAQEKFGKDKSPKFQLFGSPSGQKDLLFKDSAIGFSRVPPRIDSGLYLGSGYFTAIQNLRKSEEEVAARRARVVWCAVGEQELRKCNQWSGLSEGSVTCSSASTTEDCIALVLKGEADAMSLDGGYVYTAGKCGLVPVLAENYKSQQSSDPDPNCVDRPVEGYLAVAVVRRSDTSLTWNSVKGKKSCHTAVDRTAGWNIPMGLLFNQTGSCKFDEYFSQSCAPGSDPRSNLCALCIGDEQGENKCVPNSNERYYGYTGAFRCLAENAGDVAFVKDVTVLQNTDGNNNEAWAKDLKLADFALLCLDGKRKPVTEARSCHLAMAPNHAVVSRMDKVERLKQVLLHQQAKFGRNGSDCPDKFCLFQSETKNLLFNDNTECLARLHGKTTYEKYLGPQYVAGITNLKKCSTSPLLEACEFLRK
B2: iron-saturated human lactoferrin (ligand)
chain: B1 chain
B3: human lysozyme (enzyme)
chain: KVFERCELARTLKRLGMDGYRGISLANWMCLAKWESGYNTRATNYNAGDRSTDYGIFQINSRYWCNDGKTPGAVNACHLSCSALLQDNIADAVACAKRVVRDPQGIRAWVAWRNRCQNRDVRQYVQGCGV

Experiments:
human lysozyme = molecular target: B3; test: competitive ELISA: unlabelled competitor against 12.5 nM biotinylated hLF on hLZ-coated plates
[1] = molecular target: B1; test: solid-phase ligand binding ELISA, hLZ-coated plates
human transferrin = human transferrin (human, UniProt P02787); test: competitive ELISA: hTF as competitor of 12.5 nM biotinylated hLF on hLZ-coated plates

| Binder | IC50 (human lysozyme) | binding result [1] | binding result (human transferrin) |
| --- | --- | --- | --- |
| B1 | 11.2 nM |  |  |
| B2 | 15.4 nM |  |  |
| B3 |  | binds | no binding |
